Reference: the nanobody polyreactivity screen of Harvey et al. (2022)

assay: yeast display, Sf9 membrane polyspecificity reagent, FACS + sequencing; frameworks hold sequencing errors
In short: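 Using colony PCR, genes from sorted yeast display clones were amplified, then sequenced on MiSeq at 2 × 250 and filtered by CDR length. The clones had been stained with 10% biotinylated, detergent-solubilized Sf9 membrane reagent for 1 hour at 4 °C and sorted by FACS into low and high (top ~1%) gates on anti-HA and streptavidin fluorescence. Polyreactivity labels come from the gate of origin.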

| Sequence | polyreactivity (PSR sort gate) |
| --- | --- |
| QVQLVESGGGLVQAGGSLRLSCAASGSTFDFNAMGWYRQAPGKERELVAAITGSDGNTYYADSVKGRFTISRDNAKNNVYLQMNTLTPEDTAVYYFAADFSWWSKYVVLYDYWGQGTQVTVSS | low polyreactivity |
| QVQLVESGGGLVQAGGSLRLSCAASGSTFDFYAMGWYRQAPGKERELVAAISKSGGSTYYADSVKGRFTISRDTAKNTVYLQMNSLKPEDTAVYYCAAYVSYRMYWGQGTQVTVST | high polyreactivity |
| QVQLVESGGGLVQAGGSLRLSCAASGSTFDGNAMGWNRQAPGKERELVAAITRAGRTSYADSVKGRFTISRDNAKNTVYLQMNCLKPEDTAVFYCAKGGYDYWGQGTQVTVSS | low polyreactivity |
| QVQLVESGGGLVQAGGSLRLSCAASGSTFDGNAMGWYRQAPGKERELDAAISDGDSTTYADSVKGRFTISRDNAKNTVYLQMNSLKPEDTAVYYCNADVARSKSQASAYDYWGQVTQVTVSS | low polyreactivity |
| QVQLVESGGGLVQAGGSLRLSCAASGSTFDGYAMGWYRQAPGKERELVAAITSSDGSTYYADSVKGRFTISRDNAKNTVYLQMNSLKPEDTAVSDCNAEGYDWEFGYWGQGTQVTVSS | low polyreactivity |
| QVQLVESGGGLVQAGGSLRLSCAASGSTFDINAMGWYRQAPGKERELFASITFSGGSTYYADSVKGRITISRDYEKNNVYLQMNSLKPEDTAVYYCAADSSGEYPGGYWGQGTQVTVSS | low polyreactivity |
| QVQLVESGGGLVQAGGSLRLSCAASGSTFDINAMGWYRQAPGKERELVASITFCGGSTYYADSVKGRFTISRDNAKNTVYLEMNSLKPEDTAVYYCAADSSGEYPGGYWGQGTQVTVSS | low polyreactivity |
| QVQLVESGGGLVQAGGSLRLSCAASGSTFDIYAMGWYRQAPGKERELVAAITFSGGSTYYADSVKGRFTISRDNAKNTVYLQMNSLKPEDTAVDYCAARNDYYKTFSGYDYWGQGTQVTVSS | low polyreactivity |
| QVQLVESGGGLVQAGGSLRLSCAASGSTFDKYAMGWYRQAPGKERELVAVISGSGGRTYYADSVKGRFTISRDNAKNTVYLQMNSLKPEDTAVYYCAARGSFKKGYWGQGTQVTVSS | high polyreactivity |
| QVQLVESGGGLVQAGGSLRLSCAASGSTFDNYALGWYRQAPGKERELVAAINWSGSSTYYADSVKGRFTISRDNAKNTVYLQMNSLKPEDTAVYYCNKTGVTPKTATDGDYWGQGTQVTVSS | low polyreactivity |
| QVQLVESGGGLVQAGGSLRLSCAASGSTFDPNAMGWYRQAPGKERELVAAITGRGGSTYYADSVKGRFTISRDTAKNTVYLQMNSLKPEDTAVYYCAAEYLGSIDTSYNYWGQGTQVTVSS | low polyreactivity |
| QVQLVESGGGLVQAGGSLRLSCAASGSTFDPNAMGWYRQAPRKEREFVAAIRVSGDNTYYADSVKGRFTISRDNAKNTVYLLMNSLKPEDTAVYYCAATGTVLGSVDYWGQGTQVTVSS | low polyreactivity |
| QVQLVESGGGLVQAGGSLRLSCAASGSTFDPNTMGWYRQAPGKERELVAAITSSTASTYYADSVKGRFTISRDNAKNTVYLQMNSLKPEDTAVYYCAADSEQDNLRYYRWVWYYYWGQGTQVTVSS | low polyreactivity |
| QVQLVESGGGLVQAGGSLRLSCAASGSTFDPYAMGWYRQAPGKDRELVAAISSDGSTYYADSVKGRFTISRDNAKNTVYLQMNSLKPEYTAVYYCAADPFYWYRSVRGEYWGQGTQVTVSS | low polyreactivity |
| QVQLVESGGGLVQAGGSLRLSCAASGSTFDQYAMGWYRQAPGKDRELVAAISGSGGRTSYADSVKGRFTISRDNAKNTVYLQMNSLKPEDTAVYYCNKASYRISVPRYDYWGQGTQVTVTS | high polyreactivity |
| QVQLVESGGGLVQAGGSLRLSCAASGSTFDRYAMGWYRQAPGKEREFVAAITWGGGSTYYADSVKGRFTISRDNAKNTVYLQMNSLKPEDTAVYYCATRYGATFGYWGQGTQVTVSS | low polyreactivity |
| QVQLVESGGGLVQAGGSLRLSCAASGSTFDSYAMGWYRQAPGKEREFVAAISSCAGSSGRTSYADSVKGRFTISRDNATNTVYLQMNSLKPEDTAVYYCAKEYTLAKYREYDYWGQGTQVTVSS | low polyreactivity |
| QVQLVESGGGLVQAGGSLRLSCAASGSTFDSYAMGWYRQAPGKERELVAAISTSGGSTYYADSVKGRFTISRDNAKNTVYLQMNSLKPEDTAVYYCAAYSISSRMNYWGQGSQVTVSS | high polyreactivity |
| QVQLVESGGGLVQAGGSLRLSCAASGSTFDSYAMGWYRQAPGKERELVAAITTTGGSTFYADSVKGRFTISRDNAKNTVYLQMNSLKPEDTAVYYCAADDGWQEFEYWGQGTQVTVSS | low polyreactivity |
| QVQLVESGGGLVQAGGSLRLSCAASGSTFDSYAMGWYRQAPGKERELVAAITTTGGSTFYADSVKGRFTISRDNAKNTVYLQMNSLKPEDTAVYYCADDDGWQEFEYWGQGTQVTVSS | low polyreactivity |
| QVQLVESGGGLVQAGGSLRLSCAASGSTFDTNAMGWSRPAPGKEREWVAAITWRGGRTSYADSVKGRFTISRDNAKNTVYLQMNSLKPEDTAVYYCAAGYKFGPPAAGTFSDFDYWGQGTQVTVTS | low polyreactivity |

| Sequence | polyreactivity (PSR sort gate) |
| --- | --- |
| QVQLVESGGGLVQAGGSLRLSCAASGSTFDTNAMGWYRQAPGKERELVAAISASGGSTYYADSVKGRFTISRDNAKNTVYLQMNSLKPEDTAVYYCAATSGRAFKYDYWGQGTQVTVSS | high polyreactivity |
| QVQLVESGGGLVQAGGSLRLSCAASGSTFDTNAMGWYRQAPGKERELVATITSIGGSKYADSVKGRFTISRDNAKNTVYLQMNSLIPEDTAVYYCATDYVEIDYDYDYWGQGTQVSVSS | low polyreactivity |
| QVQLVESGGGLVQAGGSLRLSCAASGSTFDTNAMGWYRQAPGKERELVATITSIGGSTYADSVKGRFTISRDNAKNTVYLQMNSLKPEDTAVYYCATDYVEIDYDYDYWGQGTQVTLSS | low polyreactivity |
| QVQLVESGGGLVQAGGSLRLSCAASGSTFDTNVMGWYRQAPGKERDLVAAIDVSGGSTYYADSVKGRFTISRDNAKNTVYLQMNSLKPVDTAVYYCAAVDGKYGMDYWGQGTQVTVST | low polyreactivity |
| QVQLVESGGGLVQAGGSLRLSCAASGSTFDVYAKGWYRQAPGKEWELVAAISRSGGSTYYADSVKGRFTISRDNAKNTVYLQMNSLKPEDTAVYYCNPRLARWGSDEYNYWGQGTQETVSS | low polyreactivity |
| QVQLVESGGGLVQAGGSLRLSCAASGSTFDVYAMGWYRQAPGKERELVAAIDVRDSTTYYADSVKGRFTISRDNAKNTVYLQMNSLKPEDTAVYYCAAEADIEYGDDDYWGQGTQVTVSS | high polyreactivity |
| QVQLVESGGGLVQAGGSLRLSCAASGSTFDVYAMGWYRQAPGKERELVAAISYIGDNTYYADSVKGRFTISRDNAKNTVYLQMNSLKPEDTAVYYCAAEAEHYSFQDYYVEYDYWGQGTQVTVSS | high polyreactivity |
| QVQLVESGGGLVQAGGSLRLSCAASGSTFDYNAMGWYRQAPGKERELVAAITTIGGSTYYADSVKGRFTISRDNAKNTVYLQMNSLKPEDTAVYYCAADLRVWGRSGYDYWGQGTQVTVSS | low polyreactivity |
| QVQLVESGGGLVQAGGSLRLSCAASGSTFDYNAMGWYRQAPGKERELVADITGSGASTSYADSVKGRFTISRDNAKNTVYLQMNSLKPEDTAVYYCAATGYSSWTYYTHEYWGQGTQVTVSS | low polyreactivity |
| QVQLVESGGGLVQAGGSLRLSCAASGSTFDYNAMGWYRQAPGKERELVATISSSVGSTYYADSVKGRFTISRDNAKNTVNLQMNSLKPEDTAVYYCNSDYVAYGPEYDYWGQGTQVTVSS | low polyreactivity |
| QVQLVESGGGLVQAGGSLRLSCAASGSTFDYNTMGWYIQAPGKERELVAAISESGGSTYYADSVKGRFTISRDNAKNTVYLQMNSLKPEDTAVYYCATDDFGGYFGEYDYWGQGTQVTVSS | low polyreactivity |
| QVQLVESGGGLVQAGGSLRLSCAASGSTFDYSGMGWDIQAPGKERELVATITRRGGNTYYADSVKGRITISRDNANNTDYLQMNSLKPEDTAVYNCNVTPVRGSPEYGNWGQGTQVTVSS | high polyreactivity |
| QVQLVESGGGLVQAGGSLRLSCAASGSTFDYYALGWYRQAPGKETELVAAISRSGVRTYYADSVKGRFTISRDNAKNTVYLQMNSLKPEDTAVYYCAAQVIPKFDWGQGTQVTVSS | high polyreactivity |
| QVQLVESGGGLVQAGGSLRLSCAASGSTFDYYAMGWYRQAPGKERELVAAISRSGGRTYYADSVKGRFTISRDNAKNTVYLQMNSLKPEDTAVYYCAADKPVIGTYSRYDYWGQGTQVTVSS | high polyreactivity |
| QVQLVESGGGLVQAGGSLRLSCAASGSTFDYYAMGWYRQAPGKERELVAAISRTGGRTYYADSVKGRFTISRDNAKNTVFLQMNSLKPEDTAVYYCAARGGWVRRYGWRLDYWGQGTQVTVSS | low polyreactivity |
| QVQLVESGGGLVQAGGSLRLSCAASGSTFDYYAMGWYRQAPGKERELVAAITSTGSTYYADSVKGRFTISRDNAKNTVYLQMNSLKPEDTAVYYCAADDIYKYYQYYAFPYYRYDYWGQGTQVTVSS | low polyreactivity |
| QVQLVESGGGLVQAGGSLRLSCAASGSTFDYYDMGWYRQAPGKARELVAAISSGGDSTYYADSVKGRFTISRDNAKNTVYLQMNSLKPEDTAVYYCAAAVYYGQSVWYYYWGQGTQVTVSS | high polyreactivity |
| QVQLVESGGGLVQAGGSLRLSCAASGSTFDYYGMGWYRQAPGKERELVAAITTSGGSTYYADSVKGRFTISRDNAKNTVYLQMNSLKPEDTAVYYCAAESYWYGTSPYYYLYEYDYWGQGTQVTVSS | high polyreactivity |
| QVQLVESGGGLVQAGGSLRLSCAASGSTFDYYSMGWYRQAPGKERELVAAISYSGSRTYYADSVKGRFTISRDNAKNTVYLQMNSLKPEDTAVYYCAARRGYVKGKTYDYWGQGTQVTVSS | high polyreactivity |
| QVQLVESGGGLVQAGGSLRLSCAASGSTFEDYVMGWYRQAPGKERELVAAITSGDNTKYADSVKGRFTISRDNAKNTVYLQMNSLKPEDTAVYYCNADFPDVRSEYDYWGQGTQVTVSS | high polyreactivity |
